According to patent US20040018561A1, “Peptide compounds and their use as protease substrates” (priority 2002, published 2004):

Tests used:
[1] = substrate: COc1ccc2c(CC(=O)N[C@@H](CCCNC(=N)N)C(=O)N3CCCC3C(=O)N[C@@H](CC(C)C)C(=O)NCC(=O)N[C@@H](CC(C)C)C(=O)N[C@H](CNc3ccc([N+](=O)[O-])cc3[N+](=O)[O-])C(=O)N[C@@H](C)C(=O)N[C@H](CCCNC(=N)N)C(=O)N[C@@H](CCC(=O)O)C(=O)N[C@H](CCCNC(=N)N)C(N)=O)cc(=O)oc2c1; assay: purified protein, by the assay type; settings: other: substrate cleavage by MMP-9
[2] = substrate: COc1ccc2c(CC(=O)N[C@@H](CCCNC(=N)N)C(=O)N3CCC[C@@H]3C(=O)N[C@@H](CC(C)C)C(=O)NCC(=O)N[C@@H](CC(C)C)C(=O)N[C@H](CNc3ccc([N+](=O)[O-])cc3[N+](=O)[O-])C(=O)N[C@@H](C)C(=O)N[C@H](CCCNC(=N)N)C(=O)N[C@@H](CCC(=O)O)C(=O)N[C@H](CCCNC(=N)N)C(N)=O)cc(=O)oc2c1; assay: purified protein, by the assay type; settings: other: substrate cleavage by MMP-9
[3] = substrate: COc1ccc2c(CC(=O)N[C@@H](CCCNC(=N)N)C(=O)N3CCCC3C(=O)N[C@@H](CC(C)C)C(=O)NCC(=O)N[C@@H](CC(C)C)C(=O)N[C@H](CNc3ccc([N+](=O)[O-])cc3[N+](=O)[O-])C(=O)N[C@@H](C)C(=O)N[C@H](CCCNC(=N)N)C(=O)N[C@@H](CCC(=O)O)C(=O)N[C@H](CCCNC(=N)N)C(N)=O)cc(=O)oc2c1; assay: Km and kcat/Km of substrates with MMP-9; format: biochemical; settings: other: substrate cleavage by MMP-9
[4] = substrate: COc1ccc2c(CC(=O)N[C@@H](CCCNC(=N)N)C(=O)N3CCC[C@H]3C(=O)N[C@@H](CC(C)C)C(=O)NCC(=O)N[C@@H](CCCCOCc3ccccc3)C(=O)N[C@@H](CNc3ccc([N+](=O)[O-])cc3[N+](=O)[O-])C(=O)N[C@@H](C)C(=O)N[C@@H](CCCNC(=N)N)C(=O)N[C@@H](CCC(=O)O)C(=O)N[C@@H](CCCNC(=N)N)C(N)=O)cc(=O)oc2c1; assay: Km and kcat/Km of substrates with MMP-9; format: biochemical; settings: other: substrate cleavage by MMP-9
[5] = substrate: COc1ccc2c(CC(=O)N[C@H](CCCNC(=N)N)C(=O)N3CCC[C@H]3C(=O)N[C@@H](CC(C)C)C(=O)NCC(=O)N[C@@H](CCCCOCc3ccccc3)C(=O)N[C@@H](CNc3ccc([N+](=O)[O-])cc3[N+](=O)[O-])C(=O)N[C@@H](C)C(=O)N[C@H](CCCNC(=N)N)C(=O)N[C@H](CCC(=O)O)C(=O)N[C@H](CCCNC(=N)N)C(N)=O)cc(=O)oc2c1; assay: Km and kcat/Km of substrates with MMP-9; format: biochemical; settings: other: substrate cleavage by MMP-9
[6] = substrate: COc1ccc2c(CC(=O)N[C@H](CCCNC(=N)N)C(=O)N3CCC[C@H]3C(=O)N[C@@H](CC(C)C)C(=O)NCC(=O)N[C@@H](CCCCOc3ccccc3)C(=O)N[C@@H](CNc3ccc([N+](=O)[O-])cc3[N+](=O)[O-])C(=O)N[C@@H](C)C(=O)N[C@H](CCCNC(=N)N)C(=O)N[C@H](CCC(=O)O)C(=O)N[C@H](CCCNC(=N)N)C(N)=O)cc(=O)oc2c1; assay: Km and kcat/Km of substrates with MMP-9; format: biochemical; settings: other: substrate cleavage by MMP-9
[7] = substrate: COc1ccc2c(CC(=O)N[C@@H](CCCNC(=N)N)C(=O)N3CCC[C@@H]3C(=O)N[C@@H](CC(C)C)C(=O)NCC(=O)N[C@@H](CC(C)C)C(=O)N[C@H](CNc3ccc([N+](=O)[O-])cc3[N+](=O)[O-])C(=O)N[C@@H](C)C(=O)N[C@H](CCCNC(=N)N)C(=O)N[C@@H](CCC(=O)O)C(=O)N[C@H](CCCNC(=N)N)C(N)=O)cc(=O)oc2c1; assay: Km and kcat/Km of substrates with MMP-1; format: biochemical; settings: other: substrate cleavage by MMP-1
[8] = substrate: COc1ccc2c(CC(=O)N[C@H](CCCNC(=N)N)C(=O)N3CCC[C@H]3C(=O)N[C@@H](CC(C)C)C(=O)NCC(=O)N[C@@H](CCCCOCc3ccccc3)C(=O)N[C@@H](CNc3ccc([N+](=O)[O-])cc3[N+](=O)[O-])C(=O)N[C@@H](C)C(=O)N[C@H](CCCNC(=N)N)C(=O)N[C@H](CCC(=O)O)C(=O)N[C@H](CCCNC(=N)N)C(N)=O)cc(=O)oc2c1; assay: Km and kcat/Km of substrates with MMP-1; format: biochemical; settings: other: substrate cleavage by MMP-1
[9] = substrate: COc1ccc2c(CC(=O)N[C@@H](CCCNC(=N)N)C(=O)N3CCC[C@@H]3C(=O)N[C@@H](CC(C)C)C(=O)NCC(=O)N[C@@H](CC(C)C)C(=O)N[C@H](CNc3ccc([N+](=O)[O-])cc3[N+](=O)[O-])C(=O)N[C@@H](C)C(=O)N[C@H](CCCNC(=N)N)C(=O)N[C@@H](CCC(=O)O)C(=O)N[C@H](CCCNC(=N)N)C(N)=O)cc(=O)oc2c1; assay: Km and kcat/Km of substrates with MMP-2; format: biochemical; settings: other: substrate cleavage by MMP-2
[10] = substrate: COc1ccc2c(CC(=O)N[C@@H](CCCNC(=N)N)C(=O)N3CCC[C@H]3C(=O)N[C@@H](CC(C)C)C(=O)NCC(=O)N[C@@H](CCCCOCc3ccccc3)C(=O)N[C@@H](CNc3ccc([N+](=O)[O-])cc3[N+](=O)[O-])C(=O)N[C@@H](C)C(=O)N[C@@H](CCCNC(=N)N)C(=O)N[C@@H](CCC(=O)O)C(=O)N[C@@H](CCCNC(=N)N)C(N)=O)cc(=O)oc2c1; assay: Km and kcat/Km of substrates with MMP-2; format: biochemical; settings: other: substrate cleavage by MMP-2
[11] = substrate: COc1ccc2c(CC(=O)N[C@H](CCCNC(=N)N)C(=O)N3CCC[C@H]3C(=O)N[C@@H](CC(C)C)C(=O)NCC(=O)N[C@@H](CCCCOCc3ccccc3)C(=O)N[C@@H](CNc3ccc([N+](=O)[O-])cc3[N+](=O)[O-])C(=O)N[C@@H](C)C(=O)N[C@H](CCCNC(=N)N)C(=O)N[C@H](CCC(=O)O)C(=O)N[C@H](CCCNC(=N)N)C(N)=O)cc(=O)oc2c1; assay: Km and kcat/Km of substrates with MMP-2; format: biochemical; settings: other: substrate cleavage by MMP-2
[12] = substrate: COc1ccc2c(CC(=O)N[C@H](CCCNC(=N)N)C(=O)N3CCC[C@H]3C(=O)N[C@@H](CC(C)C)C(=O)NCC(=O)N[C@@H](CCCCOc3ccccc3)C(=O)N[C@@H](CNc3ccc([N+](=O)[O-])cc3[N+](=O)[O-])C(=O)N[C@@H](C)C(=O)N[C@H](CCCNC(=N)N)C(=O)N[C@H](CCC(=O)O)C(=O)N[C@H](CCCNC(=N)N)C(N)=O)cc(=O)oc2c1; assay: Km and kcat/Km of substrates with MMP-2; format: biochemical; settings: other: substrate cleavage by MMP-2
[13] = substrate: COc1ccc2c(CC(=O)N[C@@H](CCCNC(=N)N)C(=O)N3CCC[C@@H]3C(=O)N[C@@H](CC(C)C)C(=O)NCC(=O)N[C@@H](CC(C)C)C(=O)N[C@H](CNc3ccc([N+](=O)[O-])cc3[N+](=O)[O-])C(=O)N[C@@H](C)C(=O)N[C@H](CCCNC(=N)N)C(=O)N[C@@H](CCC(=O)O)C(=O)N[C@H](CCCNC(=N)N)C(N)=O)cc(=O)oc2c1; assay: Km and kcat/Km of substrates with MMP-7; format: biochemical; settings: other: substrate cleavage by MMP-7
[14] = substrate: COc1ccc2c(CC(=O)N[C@H](CCCNC(=N)N)C(=O)N3CCC[C@H]3C(=O)N[C@@H](CC(C)C)C(=O)NCC(=O)N[C@@H](CCCCOCc3ccccc3)C(=O)N[C@@H](CNc3ccc([N+](=O)[O-])cc3[N+](=O)[O-])C(=O)N[C@@H](C)C(=O)N[C@H](CCCNC(=N)N)C(=O)N[C@H](CCC(=O)O)C(=O)N[C@H](CCCNC(=N)N)C(N)=O)cc(=O)oc2c1; assay: Km and kcat/Km of substrates with MMP-7; format: biochemical; settings: other: substrate cleavage by MMP-7

B1: MMP-9 (Homo sapiens) (protein)
chain: MRTPRCGVPDLGRFQTFEGDLKWHHHNITYWIQNYSEDLPRAVIDDAFARAFALWSAVTPLTFTRVYSRDADIVIQFGVAEHGDGYPFDGKDGLLAHAFPPGPGIQGDAHFDDDELWSLGKGVVVPTRFGNADGAACHFPFIFEGRSYSACTTDGRSDGLPWCSTTANYDTDDRFGFCPSERLYTQDGNADGKPCQFPFIFQGQSYSACTTDGRSDGYRWCATTANYDRDKLFGFCPTRADSTVMGGNSAGELCVFPFTFLGKEYSTCTSEGRGDGRLWCATTSNFDSDKKWGFCPDQGYSLFLVAAHEFGHALGLDHSSVPEALMYPMYRFTEGPPLHKDDVNGIRHLYGPRPEPEPRPPTTTTPQPTAPPTVCPTGPPTVHPSERPTAGPTGPPSAGPTGPPTAGPSTATTVPLSPVDDACNVNIFDAIAEIGNQLYLFKDGKYWRFSEGRGSRPQGPFLIADKWPALPRKLDSVFEERLSKKLFFFSGRQVWVYTGASVLGPRRLDKLGLGADVAQVTGALRSGRGKMLLFSGRRLWRFDVKAQMVDPRSASEVDRMFPGVPLDTHDVFQYREKAYFCQDRFYWRVSSRSELNQVDQVGYVTYDILQCPED
Q: For B1, which Km [1] is on record?
A: The Km was 8.2 µM.

Q: What about the kcat/Km [1] of the same protein?
A: Its kcat/Km is 133 M^−1s^−1×10^4.

Q: What about the Km [2] of the same protein?
A: Its Km is 6.4 µM.

Q: And the kcat/Km [2]?
A: Its kcat/Km is 41.8 M^−1s^−1×10^4.

Q: What about the Km [3] of the same protein?
A: The Km was 6.2 µM.

Q: What about the kcat/Km [3] of the same protein?
A: Its kcat/Km is 129 M^−1s^−1×10^4.

Q: What about the Km [4] of the same protein?
A: The Km was 2.3 µM.

Q: And the kcat/Km [4]?
A: Its kcat/Km is 147 M^−1s^−1×10^4.

Q: And the Km [5]?
A: The Km was 3.3 µM.

Q: What about the kcat/Km [5] of the same protein?
A: The kcat/Km was 31.9 M^−1s^−1×10^4.

Q: And the Km [6]?
A: Its Km is 1.4 µM.

Q: What about the kcat/Km [6] of the same protein?
A: Its kcat/Km is 191 M^−1s^−1×10^4.

B2: MMP-1 (Homo sapiens) (protein)
chain: FVLTEGNPRWEQTHLTYRIENYTPDLPRADVDHAIEKAFQLWSNVTPLTFTKVSEGQADIMISFVRGDHRDNSPFDGPGGNLAHAFQPGPGIGGDAHFDEDERWTNNFREYNLHRVAAHELGHSLGLSHSTDIGALMYPSYTFSGDVQLAQDDIDGIQAIYGRSQNPVQPIGPQTPKACDSKLTFDAITTIRGEVMFFKDRFYMRTNPFYPEVELNFISVFWPQLPNGLEAAYEFADRDEVRFFKGNKYWAVQGQNVLHGYPKDIYSSFGFPRTVKHIDAALSEENTGKTYFFVANKYWRYDEYKRSMDPGYPKMIAHDFPGIGHKVDAVFMKDGFFYFFHGTRQYKFDPKTKRILTLQKANSWFNCRKN
Q: With B2 as the protein, how does the Km [7] read?
A: Its Km is 49 µM.

Q: What about the kcat/Km [7] of the same protein?
A: The kcat/Km was 5.7 M^−1s^−1×10^4.

Q: And the Km [8]?
A: Its Km is 35.1 µM.

Q: And the kcat/Km [8]?
A: Its kcat/Km is 0.36 M^−1s^−1×10^4.

B3: MMP-2 (Homo sapiens) (protein)
chain: YNFFPRKPKWDKNQITYRIIGYTPDLDPETVDDAFARAFQVWSDVTPLRFSRIHDGEADIMINFGRWEHGDGYPFDGKDGLLAHAFAPGTGVGGDSHFDDDELWTLGEGQVVRVKYGNADGEYCKFPFLFNGKEYNSCTDTGRSDGFLWCSTTYNFEKDGKYGFCPHEALFTMGGNAEGQPCKFPFRFQGTSYDSCTTEGRTDGYRWCGTTEDYDRDKKYGFCPETAMSTVGGNSEGAPCVFPFTFLGNKYESCTSAGRSDGKMWCATTANYDDDRKWGFCPDQGYSLFLVAAHEFGHAMGLEHSQDPGALMAPIYTYTKNFRLSQDDIKGIQELYGASPDIDLGTGPTPTLGPVTPEICKQDIVFDGIAQIRGEIFFFKDRFIWRTVTPRDKPMGPLLVATFWPELPEKIDAVYEAPQEEKAVFFAGNEYWIYSASTLERGYPKPLTSLGLPPDVQRVDAAFNWSKNKKTYIFAGDKFWRYNEVKKKMDPGFPKLIADAWNAIPDNLDAVVDLQGGGHSYFFKGAYYLKLENQSLKSVKFGSIKSDWLGC
Q: With B3 as the protein, how does the Km [9] read?
A: Its Km is 9.9 µM.

Q: What about the kcat/Km [9] of the same protein?
A: The kcat/Km was 17.8 M^−1s^−1×10^4.

Q: And the Km [10]?
A: The Km was 8.3 µM.

Q: What about the kcat/Km [10] of the same protein?
A: Its kcat/Km is 134 M^−1s^−1×10^4.

Q: And the Km [11]?
A: The Km was 3.7 µM.

Q: And the kcat/Km [11]?
A: The kcat/Km was 60 M^−1s^−1×10^4.

Q: What about the Km [12] of the same protein?
A: The Km was 3.6 µM.

Q: What about the kcat/Km [12] of the same protein?
A: The kcat/Km was 196 M^−1s^−1×10^4.

B4: MMP-7 (Homo sapiens) (protein)
chain: YSLFPNSPKWTSKVVTYRIVSYTRDLPHITVDRLVSKALNMWGKEIPLHFRKVVWGTADIMIGFARGAHGDSYPFDGPGNTLAHAFAPGTGLGGDAHFDEDERWTDGSSLGINFLYAATHELGHSLGMGHSSDPNAVMYPTYGNGDPQNFKLSQDDIKGIQKLYGKRSNSRKK
Q: Which Km [13] does the source give for B4 here?
A: Its Km is 81.2 µM.

Q: What about the kcat/Km [13] of the same protein?
A: Its kcat/Km is 2.2 M^−1s^−1×10^4.

Q: And the Km [14]?
A: Its Km is 94.7 µM.

Q: What about the kcat/Km [14] of the same protein?
A: The kcat/Km was 0.298 M^−1s^−1×10^4.
